Residue numbers refer to the chain shown, from its start.
B1: FP2 (Fc fusion)
chain: DKTHTCPPCPAPEAAGAPSVFLFPPKPKDTLMISRTPEVTCVVVDVSHEDPEVKFNWYVDGVEVHNAKTKPREEQQNSTYRVVSVLTVLHQDWLNGKEYKCKVSNKALKAPIEKTISKAKGQPREPQVYTLPPSRDELTKNQVSLTCLVKGFYPSDIAVEWESNGQPENNYKTTPPVLDSDGSFFLYSKLTVDKSRWQQGNVFSCSVMHEALHNHYTQKSLSLSPGGGGSGGGGSGGGGSTALGRRKAEDRIKETLWADGVKIDEKDFEHIKSSHEDYFAVEYGKGSGYYDVNKKMDSEDTALCVGAVVTNMFHWWVDQNRENIEKFKKQDPENNGVMKFNGVKEATVDELNHFYKEYQSNKYADQSRFFDLIKKHFGNKALNPEELFELYFNGFYYNSSHRYIEDNKPAQNNLFSKVLENNKLLNPERSYGIDGFSNNVINALKSHKVLGLVHTTPLRYRHIISMWGADIDQDGKVKAIYVTDSDDREITFNDNSKRRIGMIRYDVLVDDNGNIRFTGKGATHKEEGAIYAGLYSLSRGDEVWEDYFKKYPEVQENL
B2: FP3 (Fc fusion)
chain: B1 chain with N398Q
B3: FP6 (Fc fusion)
chain: B1 chain with N341E, N398Q, K408E, R459T
B4: FP134 (Fc fusion)
chain: DKTHTCPPCPAPEAAGAPSVFLFPPKPKDTLMISRTPEVTCVVVDVSHEDPEVKFNWYVDGVEVHNAKTKPREEQQNSTYRVVSVLTVLHQDWLNGKEYKCKVSNKALKAPIEKTISKAKGQPREPQVYTLPPSRDELTKNQVSLTCLVKGFYPSDIAVEWESNGQPENNYKTTPPVLDSDGSFFLYSKLTVDKSRWQQGNVFSCSVMHEALHNHYTQKSLSLSPGGGGSKGGGSKGGGSKTALGRRKAEDRIKETLWADGVKIDEKDFEHIKSSHEDYFAVEYGKGSGYYDVNKKMDSEDTALCVGAVVTNMFHWWVDQNRENIEKFKKQDPENNGVMKFEGVKEATVDELNEFYRDNRDNYADQSRFFDLIKKHFGNKALNPEELFELYFNGFYYGSSHRYIEDNEPAQNNLFSKVLENNKLLNPERSYGIDGFSNNVINALKSHKVLGLVYTTPLRYRHIISMWGADIDQDGKVKAIYVTDSDDREITFNDNSKRRIGMIRYDVLVDDNGNIRFTGKGATHKEEGAIYAGLYSLSRGDEVWEDYFKKYPEVQENL
B5: FP137 (Fc fusion)
chain: B4 chain with G228S, G229A, S230G, G233S, G234A, S235G, G238S, G239A, S240G
B6: FP11 (Fc fusion)
chain: DKTHTCPPCPAPEAAGAPSVFLFPPKPKDTLMISRTPEVTCVVVDVSHEDPEVKFNWYVDGVEVHNAKTKPREEQQNSTYRVVSVLTVLHQDWLNGKEYKCKVSNKALKAPIEKTISKAKGQPREPQVYTLPPSRDELTKNQVSLTCLVKGFYPSDIAVEWESNGQPENNYKTTPPVLDSDGSFFLYSKLTVDKSRWQQGNVFSCSVMHEALHNHYTQKSLSLSPGGGGSGGGGSGGGGSTALGRRKAEDRIKETLWADGVKIDEKDFEHIKSSHEDYFAVEYGKGSGYYDVNKKMDSEDTALCVGAVVTNMFHWWVDQNRENIEKFKKQDPENNGVMKFEGVKEATVDELNHFYRDNRDNYADQSRFFDLIKKHFGNKALNPEELFELYFNGFYYGSSHRYIEDNEPAQNNLFSKVLENNKLLNPERSYGIDGFSNNVINALKSHKVLGLVHTTPLRYRHIISMWGADIDQDGKVKAIYVTDSDDREITFNDNSKRRIGMIRYDVLVDDNGNIRFTGKGATHKEEGAIYAGLYSLSRGDEVWEDYFKKYPEVQENL
B7: FP14 (Fc fusion)
chain: B6 chain with H453Y, R458T
B8: FP12 (Fc fusion)
chain: B6 chain with H453Y
B9: FP15 (Fc fusion)
chain: B6 chain with T301S, R458T
B10: FP121 (Fc fusion)
chain: B6 chain with H353E, H453Y
B11: FP17 (Fc fusion)
chain: DKTHTCPPCPAPEAAGAPSVFLFPPKPKDTLMISRTPEVTCVVVDVSHEDPEVKFNWYVDGVEVHNAKTKPREEQQNSTYRVVSVLTVLHQDWLNGKEYKCKVSNKALKAPIEKTISKAKGQPREPQVYTLPPSRDELTKNQVSLTCLVKGFYPSDIAVEWESNGQPENNYKTTPPVLDSDGSFFLYSKLTVDKSRWQQGNVFSCSVMHEALHNHYTQKSLSLSPGGGGSGGGGSGGGGSGGGGSGGGGSGGGGSTALGRRKAEDRIKETLWADGVKIDEKDFEHIKSSHEDYFAVEYGKGSGYYDVNKKMDSEDTALCVGAVVTNMFHWWVDQNRENIEKFKKQDPENNGVMKFNGVKEATVDELNHFYKEYQSNKYADQSRFFDLIKKHFGNKALNPEELFELYFNGFYYGSSHRYIEDNKPAQNNLFSKVLENNKLLNPERSYGIDGFSNNVINALKSHKVLGLVHTTPLRYRHIISMWGADIDQDGKVKAIYVTDSDDREITFNDNSKRRIGMIRYDVLVDDNGNIRFTGKGATHKEEGAIYAGLYSLSRGDEVWEDYFKKYPEVQENL
B12: FP132 (Fc fusion)
chain: DKTHTCPPCPAPEAAGAPSVFLFPPKPKDTLMISRTPEVTCVVVDVSHEDPEVKFNWYVDGVEVHNAKTKPREEQQNSTYRVVSVLTVLHQDWLNGKEYKCKVSNKALKAPIEKTISKAKGQPREPQVYTLPPSRDELTKNQVSLTCLVKGFYPSDIAVEWESNGQPENNYKTTPPVLDSDGSFFLYSKLTVDKSRWQQGNVFSCSVMHEALHNHYTQKSLSLSPGGGGGSGGGGSTALGRRKAEDRIKETLWADGVKIDEKDFEHIKSSHEDYFAVEYGKGSGYYDVNKKMDSEDTALCVGAVVTNMFHWWVDQNRENIEKFKKQDPENNGVMKFEGVKEATVDELNEFYRDNRDNYADQSRFFDLIKKHFGNKALNPEELFELYFNGFYYGSSHRYIEDNEPAQNNLFSKVLENNKLLNPERSYGIDGFSNNVINALKSHKVLGLVYTTPLRYRHIISMWGADIDQDGKVKAIYVTDSDDREITFNDNSKRRIGMIRYDVLVDDNGNIRFTGKGATHKEEGAIYAGLYSLSRGDEVWEDYFKKYPEVQENL
B13: FP133 (Fc fusion)
chain: B12 chain with G230S, S231K, G235S, S236K
B14: FP139 (Fc fusion)
chain: B12 chain with G228S, G229S, G230A, S231P, G233S, G234S, G235A, S236P
B15: FP136 (Fc fusion)
chain: B12 chain with G228S, G229A, S231K, G233S, G234A, S236K

Target: Human IgE antibody (human)
Assay: cell-based or functional assay

Binder	EC50 CE-SDS IgE	EC50 MSD IgE
B1	212 nM	140 nM
B2	71.5 nM	114 nM
B3		99.4 nM
B4	2.36 nM	
B5	1.28 nM	
B6	68.5 nM	
B7	31.9 nM	
B8	43.3 nM	0.753 nM
B9	54.7 nM	
B10	1.22 nM	1.25 nM
B11	56.3 nM	
B12	1.27 nM	
B13	1.15 nM	
B14	0.11 nM	
B15	0.61 nM	

Source: patent publication US20250340857A1 (SEISMIC THERAPEUTIC, published 2025)
